The values that follow come from patent US20150258180A1 (UNIVERSITY OF MANITOBA, published 2015).

The target of data set [1] is T1, human GM2 activator protein (GM2AP), recombinant, P17900.
T1 chain: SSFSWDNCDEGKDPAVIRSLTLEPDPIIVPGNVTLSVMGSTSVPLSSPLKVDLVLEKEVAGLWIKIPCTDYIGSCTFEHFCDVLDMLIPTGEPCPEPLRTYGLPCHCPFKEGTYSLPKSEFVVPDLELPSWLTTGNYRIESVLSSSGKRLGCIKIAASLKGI

Data set [2] addresses plasma membrane mannose-6-phosphate receptor of human Tay-Sachs fibroblasts (human, UniProt P11717 41-2491). In words: cell-based or functional assay.

Sequence of plasma membrane mannose-6-phosphate receptor of human Tay-Sachs fibroblasts (P11717 41-2491): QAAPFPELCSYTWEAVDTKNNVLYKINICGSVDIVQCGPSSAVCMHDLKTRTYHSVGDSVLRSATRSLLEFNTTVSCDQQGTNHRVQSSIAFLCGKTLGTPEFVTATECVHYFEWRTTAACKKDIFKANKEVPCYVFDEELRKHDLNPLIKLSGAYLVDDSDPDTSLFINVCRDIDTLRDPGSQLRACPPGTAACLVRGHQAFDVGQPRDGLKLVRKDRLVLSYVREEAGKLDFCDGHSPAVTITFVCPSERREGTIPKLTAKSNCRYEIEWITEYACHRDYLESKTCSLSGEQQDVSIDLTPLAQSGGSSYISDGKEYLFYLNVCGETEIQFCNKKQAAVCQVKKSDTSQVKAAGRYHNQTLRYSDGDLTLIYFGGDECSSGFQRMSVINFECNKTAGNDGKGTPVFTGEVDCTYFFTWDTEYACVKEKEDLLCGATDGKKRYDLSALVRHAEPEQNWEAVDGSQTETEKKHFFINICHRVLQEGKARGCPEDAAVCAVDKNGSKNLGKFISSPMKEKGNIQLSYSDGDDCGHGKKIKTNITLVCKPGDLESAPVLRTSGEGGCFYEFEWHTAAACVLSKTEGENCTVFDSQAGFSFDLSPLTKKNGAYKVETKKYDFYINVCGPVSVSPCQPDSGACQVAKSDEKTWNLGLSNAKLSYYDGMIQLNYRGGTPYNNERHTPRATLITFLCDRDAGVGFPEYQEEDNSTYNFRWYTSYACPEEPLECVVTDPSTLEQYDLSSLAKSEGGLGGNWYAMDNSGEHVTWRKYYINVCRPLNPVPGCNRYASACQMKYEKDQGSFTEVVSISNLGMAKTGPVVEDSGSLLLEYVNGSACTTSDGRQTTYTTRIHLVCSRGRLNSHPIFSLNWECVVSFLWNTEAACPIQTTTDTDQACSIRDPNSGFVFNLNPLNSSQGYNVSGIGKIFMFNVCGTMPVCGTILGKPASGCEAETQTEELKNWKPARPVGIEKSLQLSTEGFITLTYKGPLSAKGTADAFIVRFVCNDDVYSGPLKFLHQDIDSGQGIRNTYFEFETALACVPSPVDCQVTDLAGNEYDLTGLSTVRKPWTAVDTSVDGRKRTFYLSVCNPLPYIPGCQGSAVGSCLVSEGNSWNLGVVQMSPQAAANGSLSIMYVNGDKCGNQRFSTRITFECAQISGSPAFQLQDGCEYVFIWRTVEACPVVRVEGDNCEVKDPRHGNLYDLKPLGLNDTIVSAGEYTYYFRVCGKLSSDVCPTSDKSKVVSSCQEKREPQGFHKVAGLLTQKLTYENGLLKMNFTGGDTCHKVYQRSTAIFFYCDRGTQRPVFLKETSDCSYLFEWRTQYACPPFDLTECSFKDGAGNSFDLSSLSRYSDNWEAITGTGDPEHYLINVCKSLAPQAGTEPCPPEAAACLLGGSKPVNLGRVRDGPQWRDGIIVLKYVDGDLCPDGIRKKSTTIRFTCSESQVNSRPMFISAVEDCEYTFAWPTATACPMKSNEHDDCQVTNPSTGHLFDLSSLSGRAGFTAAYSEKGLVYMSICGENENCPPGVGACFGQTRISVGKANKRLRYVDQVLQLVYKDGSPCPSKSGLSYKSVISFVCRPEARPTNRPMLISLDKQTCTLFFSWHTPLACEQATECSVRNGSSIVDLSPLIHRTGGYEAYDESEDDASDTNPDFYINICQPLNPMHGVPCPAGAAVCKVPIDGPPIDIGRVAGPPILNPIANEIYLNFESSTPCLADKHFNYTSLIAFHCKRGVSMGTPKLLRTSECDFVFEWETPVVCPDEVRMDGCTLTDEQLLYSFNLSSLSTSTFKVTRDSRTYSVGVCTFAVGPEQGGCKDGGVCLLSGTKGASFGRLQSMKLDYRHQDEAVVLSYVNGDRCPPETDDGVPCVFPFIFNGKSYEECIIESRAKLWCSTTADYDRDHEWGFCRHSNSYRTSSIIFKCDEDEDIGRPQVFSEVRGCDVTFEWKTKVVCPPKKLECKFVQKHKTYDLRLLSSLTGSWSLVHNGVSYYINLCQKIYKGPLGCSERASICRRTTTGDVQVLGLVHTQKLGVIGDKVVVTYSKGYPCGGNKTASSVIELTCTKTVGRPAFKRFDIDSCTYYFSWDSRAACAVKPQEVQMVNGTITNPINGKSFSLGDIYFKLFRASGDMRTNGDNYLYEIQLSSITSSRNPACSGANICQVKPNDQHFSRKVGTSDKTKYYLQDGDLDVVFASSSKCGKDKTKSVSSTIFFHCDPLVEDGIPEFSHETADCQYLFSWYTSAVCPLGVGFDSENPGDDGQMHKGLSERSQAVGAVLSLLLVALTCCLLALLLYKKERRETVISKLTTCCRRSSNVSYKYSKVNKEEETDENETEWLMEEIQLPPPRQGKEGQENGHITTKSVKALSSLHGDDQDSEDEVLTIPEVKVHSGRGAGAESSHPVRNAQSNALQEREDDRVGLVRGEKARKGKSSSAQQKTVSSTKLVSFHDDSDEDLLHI

B1: mature variant α-subunit homodimer (500 mM NaCl DEAE fraction) (protein)
chain: LWPWPQNFQTSDQRYVLYPNNFQFQYDVSSAAQPGCSVLDEAFQRYRDLLFGSGSWPRPYLTGKRHTLEKNVLVVSVVTPGCNQLPTLESVENYTLTINDDQCLLLSETVWGALRGLETFSQLVWKSAEGTFFINKTEIEDFPRFPHRGLLLDTSRHYLPLKSILDTLDVMAYNKLNVFHWHLVDDQSFPYESFTFPELMRKGSYSLSHIYTAQDVKEVIEYARLRGIRVLAEFDTPGHTLSWGPGIPGLLTPCYSGSEPSGTFGPVNPSLNNTYEFMSTFFLEVSSVFPDFYLHLGGDEVDFTCWKSNPEIQDFMRKKGFGEDFKQLESFYIQTLLDIVSSYGKGYVVWQEVFDNKVKIQPDTIIQVWREDIPVNYMKELELVTKAGFRALLSAPWYLNRISYGQDWRKFYKVEPLAFEGTPEQKALVIGGEACMWGEYVDATNLVPRLWPRAGAVAERLWSNKLTRDMDDAYDRLSHFRCELVRRGVAAQPLYAGYCNQEFEQT
Regarding B1, in data set [1], the “NBD-GM3 produced in the overnight in vitro NBD-GM2 hydrolysis assay (liposomes plus rGM2AP), against Hex A at the same number of MUG units” value is “the variant protein produces at least twice as much NBD-GM3 as Hex A” and the “detectable NBD-GM3 in the in vitro NBD-GM2 hydrolysis assay with human GM2AP” value was “Only the assay containing Hex A or the variant protein produced detectable levels of NBD-GM3”.

B2: secreted variant β-hexosaminidase protein in conditioned media (enzyme)
chain: B1 chain
modifications: mannose-6-phosphate on Asn-linked oligosaccharides
For the molecule B2, in data set [2], the “fold increase in intracellular MUGS activity of untransfected TSD fibroblasts grown in conditioned media” value was roughly 38 fold and the “fold increase in intracellular MUGS activity of untransfected TSD fibroblasts grown in conditioned media containing 5 mM mannose-6-phosphate” value is roughly 10 fold.

B3: Hex A (β-hexosaminidase A), purified from human placenta (protein)
chain 1: LWPWPQNFQTSDQRYVLYPNNFQFQYDVSSAAQPGCSVLDEAFQRYRDLLFGSGSWPRPYLTGKRHTLEKNVLVVSVVTPGCNQLPTLESVENYTLTINDDQCLLLSETVWGALRGLETFSQLVWKSAEGTFFINKTEIEDFPRFPHRGLLLDTSRHYLPLSSILDTLDVMAYNKLNVFHWHLVDDPSFPYESFTFPELMRKGSYNPVTHIYTAQDVKEVIEYARLRGIRVLAEFDTPGHTLSWGPGIPGLLTPCYSGSEPSGTFGPVNPSLNNTYEFMSTFFLEVSSVFPDFYLHLGGDEVDFTCWKSNPEIQDFMRKKGFGEDFKQLESFYIQTLLDIVSSYGKGYVVWQEVFDNKVKIQPDTIIQVWREDIPVNYMKELELVTKAGFRALLSAPWYLNRISYGPDWKDFYIVEPLAFEGTPEQKALVIGGEACMWGEYVDNTNLVPRLWPRAGAVAERLWSNKLTSDLTFAYERLSHFRCELLRRGVQAQPLNVGFCEQEFEQT
chain 2: TQVQQLLVSITLQSECDAFPNISSDESYTLLVKEPVAVLKANRVWGALRGLETFSQLVYQDSYGTFTINESTIIDSPRFSHRGILIDTSRHYLPVKIILKTLDAMAFNKFNVLHWHIVDDQSFPYQSITFPELSNKGSYSLSHVYTPNDVRMVIEYARLRGIRVLPEFDTPGHTLSWGKGQKDLLTPCYSRQNKLDSFGPINPTLNTTYSFLTTFFKEISEVFPDQFIHLGGDEVEFKCWESNPKIQDFMRQKGFGTDFKKLESFYIQKVLDIIATINKGSIVWQEVFDDKAKLAPGTIVEVWKDSAYPEELSRVTASGFPVILSAPWYLDLISYGQDWRKYYKVEPLDFGGTQKQKQLFIGGEACLWGEYVDATNLTPRLWPRASAVGERLWSSKDVRDMDDAYDRLTRHRCRMVERGIAAQPLYAGYCNHENM
As for B3, the “detectable NBD-GM3 in the in vitro NBD-GM2 hydrolysis assay with human GM2AP” value in data set [1] is listed as “Only the assay containing Hex A or the variant protein produced detectable levels of NBD-GM3”.

B4: Hex B (β-hexosaminidase B), purified from human placenta (protein)
chain: B3 chain 2
As for B4, the “detectable NBD-GM3 in the in vitro NBD-GM2 hydrolysis assay with human GM2AP (none for Hex B, the negative control)” value in data set [1] is listed as “Only the assay containing Hex A or the variant protein produced detectable levels of NBD-GM3”.
